# B1: anti-human CD19 mAb CB3f (IgG4 isotype) (antibody, V domains shown)
# VH: QVQLVQSGAEVKKPGSSVKVSCKASGHTISSYAYSWVRQAPGQGLEWMGDIIPAYGSPNYAQKFQGRVTITADESTSTAYMELSSLRSEDTAVYYCAREDFGKNYAMDVWGQGTLVTVSS
# VL: EIVLTQSPGTLSLSPGERATLSCRASQHVSSHYLAWYQQKPGQAPRLLIYGASSRATGIPDRFSGSGSGTDFTLTISRLEPEDFAVYYCQHYGQSQFTFGQGTKVEIKR
# notes: also called anti-human CD19 mAb1
# B2: Fab fragment of CB3f (Fab, V domains shown)
# VH: QVQLVQSGAEVKKPGSSVKVSCKASGHTISSYAYSWVRQAPGQGLEWMGDIIPAYGSPNYAQKFQGRVTITADESTSTAYMELSSLRSEDTAVYYCAREDFGKNYAMDVWGQGTLVTVSS
# VL: EIVLTQSPGTLSLSPGERATLSCRASQHVSSHYLAWYQQKPGQAPRLLIYGASSRATGIPDRFSGSGSGTDFTLTISRLEPEDFAVYYCQHYGQSQFTFGQGTKVEIK
# notes: also called CB3f Fab fragment; CB3f Fab
# How the values were obtained:
# [1] = target: T1, human CD19 extracellular domain protein (human, UniProt P15391 20-291, biotinylated in the FIG. 2 ELISA and in the Fab screening (sites not given)); test: sandwich ELISA: antibody captured on goat anti-human kappa, biotinylated human CD19 ECD titrated (20 ug/mL to 9 ng/mL), about 16 h wash at 37 C, neutravidin-alkaline phosphatase, absorbance at 560 nm
# T1 construct: also called CD19 extracellular domain (ECD) protein; biotinylated human CD19 ECD antigen
# T1 sequence: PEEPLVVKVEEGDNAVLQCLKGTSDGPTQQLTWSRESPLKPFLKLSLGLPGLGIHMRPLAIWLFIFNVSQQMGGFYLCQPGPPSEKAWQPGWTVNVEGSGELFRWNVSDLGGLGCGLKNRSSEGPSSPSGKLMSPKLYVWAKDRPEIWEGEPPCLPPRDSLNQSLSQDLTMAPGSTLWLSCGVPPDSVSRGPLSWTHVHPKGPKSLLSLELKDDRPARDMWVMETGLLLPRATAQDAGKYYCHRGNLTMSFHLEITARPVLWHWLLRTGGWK
# Experimental: The ELISA assay is performed as follows. A 96 well microtiter plate is coated overnight at 4° C. using 50 μL/well of goat anti-human kappa polyclonal antibody diluted to 5 μg/mL in phosphate buffered saline (PBS). Following overnight incubation, the plate is aspirated and blocked using 200 μL of casein buffer for 1 hour at room temperature. The plate is washed three times using PBST (PBS with 0.1% Tween). The anti-human CD19 antibodies are diluted to 5 μg/mL in PBS casein and 50 μL added to each column of the anti-human kappa coated casein blocked plate for 1 hour at 37° C. The plate is washed three times using PBST. Biotinylated human CD19 extracellular domain protein is serially diluted from 20 μg/mL to 9 ng/mL and 50 μL added to the plates and incubated for 1 hour at 37° C. The plate is washed three times using PBST and then transferred to a beaker containing 1 liter of PBST and incubated with stirring overnight (approx. 16 hr) at 37° C. The wash buffer is aspirated and 50 μL of neutravidin alkaline phosphatase-conjugate diluted 1:1000 in casein buffer is added and incubated for 1 hour at 37° C. The plate is washed three times using PBS 0.1% Tween. Fifty μL of AMP-PMP substrate diluted 1:35 in deionized water is added and the absorbance at 560 nm read on a Spectramax plate reader.
# [2] = target: T2, human CD19, membrane-bound, on cells (human, UniProt P15391 20-556); test: cell-based or functional assay
# T2 sequence: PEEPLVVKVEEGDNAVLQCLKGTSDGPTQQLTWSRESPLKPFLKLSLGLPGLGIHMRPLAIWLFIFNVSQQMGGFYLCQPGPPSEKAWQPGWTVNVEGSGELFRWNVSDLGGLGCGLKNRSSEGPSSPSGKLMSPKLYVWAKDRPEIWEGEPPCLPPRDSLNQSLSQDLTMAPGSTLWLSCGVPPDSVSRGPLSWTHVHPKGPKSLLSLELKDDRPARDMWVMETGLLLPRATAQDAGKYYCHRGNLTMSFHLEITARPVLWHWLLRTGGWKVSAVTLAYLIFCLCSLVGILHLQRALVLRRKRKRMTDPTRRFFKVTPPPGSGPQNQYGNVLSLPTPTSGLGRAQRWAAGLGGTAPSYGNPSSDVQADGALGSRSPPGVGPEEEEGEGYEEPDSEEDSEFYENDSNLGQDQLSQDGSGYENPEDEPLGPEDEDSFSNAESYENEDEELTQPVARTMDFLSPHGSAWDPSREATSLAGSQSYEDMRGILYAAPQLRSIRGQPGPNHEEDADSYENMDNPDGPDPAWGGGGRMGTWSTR
# [3] = target: T3, cynomolgus monkey CD19, membrane-bound, stably expressed on CHO cells (cynomolgus monkey, UniProt A0A2K5W8L9 20-557); test: MSD-SET solution equilibrium titration at 37° C., fixed CHO cells expressing cynomolgus monkey CD19; geometric mean of 3 replicates
# T3 construct: whole, on cells; The cells were fixed with paraformaldehyde for MSD-SET; also called cynomolgus monkey CD19 expressing CHO cells
# T3 sequence: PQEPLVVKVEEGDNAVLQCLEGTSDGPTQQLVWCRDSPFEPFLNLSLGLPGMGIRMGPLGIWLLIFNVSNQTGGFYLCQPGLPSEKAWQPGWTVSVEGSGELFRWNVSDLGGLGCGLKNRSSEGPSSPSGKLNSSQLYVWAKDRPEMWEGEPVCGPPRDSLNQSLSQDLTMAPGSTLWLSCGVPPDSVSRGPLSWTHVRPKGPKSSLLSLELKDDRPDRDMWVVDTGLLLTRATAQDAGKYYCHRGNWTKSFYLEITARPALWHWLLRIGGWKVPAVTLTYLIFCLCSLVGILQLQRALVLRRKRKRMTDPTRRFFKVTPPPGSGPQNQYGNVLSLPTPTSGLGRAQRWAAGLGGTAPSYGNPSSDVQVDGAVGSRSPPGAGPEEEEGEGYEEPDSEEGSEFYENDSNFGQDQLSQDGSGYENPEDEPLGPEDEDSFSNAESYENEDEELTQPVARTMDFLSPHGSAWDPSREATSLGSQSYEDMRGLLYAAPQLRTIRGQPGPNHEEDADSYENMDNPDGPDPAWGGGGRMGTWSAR
# Experimental: (§1) Following incubation, cells are pelleted by centrifugation. One hundred microliters of the clarified supernatant from the plate is transferred to the prepared MSD plate and incubated on a plate shaker at room temperature for 60 minutes. Following incubation, the plate is washed 3× with TBST, then 100 μL of 1 μg/mL biotinylated goat anti-human IgG primary antibody (Southern Biotech, Catalog 2010-08) in 1% Blocker A is added to all wells. This is incubated on a plate shaker at room temperature for 60 minutes. The plate was washed 3× with TBST, then 100 μL of 1 μg/mL SULFO-TAG streptavidin (Meso Scale Discovery, P/N R32AD-1) in 1% Blocker A was added to all wells. This was incubated on a plate shaker at room temperature for 60 minutes. The plate is washed 3× with TBST, then 1× Read Buffer T (Meso Scale Discovery, P/NR92TC-1) is added immediately before reading the plate. Dissociation constant (KD) and a least common multiplier (LCM) to account for unknown antigen concentrations on cells are globally fit from the MSD-SET data to an equilibrium binding equation (see Darling and Brault, 2005, Kinetic Exclusion Assay Technology: Characterization of Molecular Interactions. Assay and Drug Development Technologies 2: 647-657) using non-linear regression in GraphPad Prism.
# [4] = target: T2, human CD19, membrane-bound, on cells; test: cell-based or functional assay; remark: listed apart in the source
# [5] = target: T2, human CD19, membrane-bound, on cells; test: MSD-SET solution equilibrium titration at 37° C., fixed CHO cells expressing human CD19; geometric mean of 3 replicates
# Experimental: as §1
# [6] = target: T4, human CD19 Fc fusion protein (human, UniProt P15391 20-291); test: SPR (Biacore T200) at 37° C., CD19-Fc captured on a protein A chip, Fab injected, KD = koff/kon
# T4 construct: Bought from R&D Systems; also called recombinant CD19-Fc; not shown: Fc part of a bought fusion protein
# T4 sequence: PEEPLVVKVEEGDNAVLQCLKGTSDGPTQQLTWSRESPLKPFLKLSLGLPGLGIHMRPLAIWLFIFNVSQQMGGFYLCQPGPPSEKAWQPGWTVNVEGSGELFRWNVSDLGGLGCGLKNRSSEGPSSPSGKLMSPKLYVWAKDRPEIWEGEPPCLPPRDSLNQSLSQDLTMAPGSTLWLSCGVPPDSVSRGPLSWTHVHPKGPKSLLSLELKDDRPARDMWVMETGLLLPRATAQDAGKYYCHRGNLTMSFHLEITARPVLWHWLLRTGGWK
# Experimental: (§2) Biacore T200 instrument (GE Healthcare Life Sciences), reagents, and Biacore T200 Evaluation Software Ver 3.1 are used for the surface plasmon resonance analysis of human, mouse and cynomolgus monkey CD19 binding to the Fab fragment of CB3f. Recombinant CD19-Fc proteins are purchased from R&D Systems. A protein A sensor chip (GE protein A chip P/N 2912755) is used. Running buffer is 1×HBS-EP+ (Teknova P/N H8022), and running temperature is 37° C.
# (§3) CD19 Fc fusion proteins are diluted to 3 μg/mL in running buffer, and approximately 60 RU each of human, cynomolgus monkey, and mouse proteins are captured in flow cells (Fc) 2, 3 and 4, respectively. CB3f Fab fragment is diluted to 1000 nM in running buffer and then 5-fold serially diluted in running buffer to 1.6 nM for a total of 5 dilutions. Fab or buffer blank is injected at 50 μL/min for 300 seconds followed by a 900 second dissociation phase. Regeneration is performed by injecting 10 mM glycine pH 1.5 for 30 seconds at 50 μL/min over all Fc. Reference-subtracted data is collected as Fc2-Fc1, Fc3-Fc1 and Fc4-Fc1, and then reference-subtracted data is blank subtracted. The on-rate (kₒₙ) and off-rate (koff) are fit using the “1:1 Binding” model. The affinity (KD) is calculated from the binding kinetics according to the relationship: KD=koff/kₒₙ.
# [7] = target: T5, cynomolgus monkey CD19 Fc fusion protein (cynomolgus monkey, UniProt A0A2K5W8L9 20-292); test: as above
# T5 construct: Bought from R&D Systems; also called recombinant CD19-Fc; not shown: Fc part of a bought fusion protein
# T5 sequence: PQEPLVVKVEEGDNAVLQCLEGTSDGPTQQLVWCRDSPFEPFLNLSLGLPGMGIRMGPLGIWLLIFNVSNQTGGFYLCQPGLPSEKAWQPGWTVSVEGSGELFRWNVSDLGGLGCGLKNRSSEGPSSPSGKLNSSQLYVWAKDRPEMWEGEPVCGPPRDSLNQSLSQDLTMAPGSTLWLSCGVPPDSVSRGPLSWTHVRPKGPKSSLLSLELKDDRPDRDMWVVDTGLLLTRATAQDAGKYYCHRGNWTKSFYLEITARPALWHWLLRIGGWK
# Experimental: as §2, §3
# [8] = target: T4, human CD19 Fc fusion protein; test: SPR (Biacore T200) at 37° C., CD19-Fc captured on a protein A chip, Fab injected, 1:1 binding model
# Experimental: as §2, §3
# [9] = target: T5, cynomolgus monkey CD19 Fc fusion protein; test: as above
# Experimental: as §2, §3
# [10] = target: T6, mouse CD19 Fc fusion protein (mouse, UniProt P25918 19-287, limits assumed); test: SPR (Biacore T200) at 37° C., CD19-Fc captured on a protein A chip, Fab injected
# T6 construct: Bought from R&D Systems; also called recombinant CD19-Fc; not shown: Fc part of a bought fusion protein
# T6 sequence (looked up): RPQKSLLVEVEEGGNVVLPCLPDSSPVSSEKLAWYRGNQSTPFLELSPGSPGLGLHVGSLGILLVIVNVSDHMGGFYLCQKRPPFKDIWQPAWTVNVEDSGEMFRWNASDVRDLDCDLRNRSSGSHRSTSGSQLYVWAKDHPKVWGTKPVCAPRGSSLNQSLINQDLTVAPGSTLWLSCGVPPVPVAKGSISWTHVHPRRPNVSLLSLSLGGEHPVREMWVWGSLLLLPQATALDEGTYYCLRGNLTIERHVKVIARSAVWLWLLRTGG
# Experimental: as §2, §3
binder,measurement,setting,value
B1,EC50 (read off the curve),[1],~0.8 µg/mL
same,"IC50, inhibition of B cell activation in whole blood (reduction of CD69+ B cells), Average",[2],8 pM
same,"IC50, inhibition of B cell activation in whole blood (reduction of CD69+ B cells), Donor 1",[2],15 pM
same,"IC50, inhibition of B cell activation in whole blood (reduction of CD69+ B cells), Donor 2",[2],0.6 pM
same,"IC50, inhibition of B cell activation in whole blood (reduction of CD69+ B cells), Donor 3",[2],8 pM
same,Kd,[3],45.2 pM
same,"IC50, inhibition of primary B cell proliferation ([3H]-thymidine), Average of 12 donors",[4],7 pM
same,"IC50, inhibition of primary B cell proliferation ([3H]-thymidine), Donor 1",[4],6 pM
same,"IC50, inhibition of primary B cell proliferation ([3H]-thymidine), Donor 2",[4],9 pM
same,"IC50, inhibition of primary B cell proliferation ([3H]-thymidine), Donor 3",[4],3 pM
same,"IC50, inhibition of primary B cell proliferation ([3H]-thymidine), Donor 4",[4],6 pM
same,"IC50, inhibition of primary B cell proliferation ([3H]-thymidine), Donor 5",[4],4 pM
same,"IC50, inhibition of primary B cell proliferation ([3H]-thymidine), Donor 6",[4],3 pM
same,"IC50, inhibition of primary B cell proliferation ([3H]-thymidine), Donor 7",[4],3 pM
same,"IC50, inhibition of primary B cell proliferation ([3H]-thymidine), Donor 8",[4],5 pM
same,"IC50, inhibition of primary B cell proliferation ([3H]-thymidine), Donor 9",[4],5 pM
same,"IC50, inhibition of primary B cell proliferation ([3H]-thymidine), Donor 10",[4],28 pM
same,"IC50, inhibition of primary B cell proliferation ([3H]-thymidine), Donor 11",[4],4 pM
same,"IC50, inhibition of primary B cell proliferation ([3H]-thymidine), Donor 12",[4],5 pM
same,Kd,[5],3.35 pM
B2,Kd,[6],76.8 pM
same,Kd,[7],94500 pM
same,koff,[8],0.000235 s⁻¹
same,kon,[8],3.2e+06 M⁻¹ s⁻¹
same,koff,[9],0.0978 s⁻¹
same,kon,[9],1.04e+06 M⁻¹ s⁻¹
same,binding result,[10],no binding (tested: 1 µM)

# Source: patent US20210269520A1 (Eli Lilly, published 2021)
